{"source": "patent US20170319655A1", "about": "(UNIVERSITY OF MARYLAND BALTIMORE, published 2017)", "binders": {"B1": {"name": "Pseudomonas aeruginosa (Pa) flagellin purified from Pa strain PA01, Alexa Fluor 594-labeled (ligand)", "chain": "MALTVNTNIASLNTQRNLNASSNDLNTSLQRLTTGYRINSAKDDAAGLQISNRLSNQISGLNVATRNANDGISLAQTAEGALQQSTNILQRIRDLALQSANGSNSDADRAALQKEVAAQQAELTRISDTTTFGGRKLLDGSFGTTSFQVGSNAYETIDISLQNASASAIGSYQVGSNGAGTVASVAGTATASGIASGTVNLVGGGQVKNIAIAAGDSAKAIAEKMDGAIPNLSARARTVFTADVSGVTGGSLNFDVTVGSNTVSLAGVTSTQDLADQLNSNSSKLGITASINDKGVLTITSATGENVKFGAQTGTATAGQVAVKVQGSDGKFEAAAKNVVAAGTAATTTIVTGYVQLNSPTAYSVSGTGTQASQVFGNASAAQKSSVASVDISTADGAQNAIAVVDNALAAIDAQRADLGAVQNRFKNTIDNLTNISENATNARSRIKDTDFAAETAALSKNQVLQQAGTAILAQANQLPQAVLSLLR", "modifications": "Alexa Fluor 594 label (site not stated)", "notes": "also called purified flagellin; Alexa Fluor 594-flagellin"}}, "key": {"[1]": {"biological_target": "T1, MUC1-ED on Ad-NEU1-infected airway epithelial cells (A549 cells; SAECs), desialylated by overexpressed NEU1 (human, UniProt P15941 24-1255, glycans desialylated by overexpressed NEU1)", "T1 construct": "Endogenous MUC1 of human airway ECs that overexpress NEU1; also called Ad-NEU1-infected ECs", "T1 sequence (P15941 24-1255 limits assumed)": "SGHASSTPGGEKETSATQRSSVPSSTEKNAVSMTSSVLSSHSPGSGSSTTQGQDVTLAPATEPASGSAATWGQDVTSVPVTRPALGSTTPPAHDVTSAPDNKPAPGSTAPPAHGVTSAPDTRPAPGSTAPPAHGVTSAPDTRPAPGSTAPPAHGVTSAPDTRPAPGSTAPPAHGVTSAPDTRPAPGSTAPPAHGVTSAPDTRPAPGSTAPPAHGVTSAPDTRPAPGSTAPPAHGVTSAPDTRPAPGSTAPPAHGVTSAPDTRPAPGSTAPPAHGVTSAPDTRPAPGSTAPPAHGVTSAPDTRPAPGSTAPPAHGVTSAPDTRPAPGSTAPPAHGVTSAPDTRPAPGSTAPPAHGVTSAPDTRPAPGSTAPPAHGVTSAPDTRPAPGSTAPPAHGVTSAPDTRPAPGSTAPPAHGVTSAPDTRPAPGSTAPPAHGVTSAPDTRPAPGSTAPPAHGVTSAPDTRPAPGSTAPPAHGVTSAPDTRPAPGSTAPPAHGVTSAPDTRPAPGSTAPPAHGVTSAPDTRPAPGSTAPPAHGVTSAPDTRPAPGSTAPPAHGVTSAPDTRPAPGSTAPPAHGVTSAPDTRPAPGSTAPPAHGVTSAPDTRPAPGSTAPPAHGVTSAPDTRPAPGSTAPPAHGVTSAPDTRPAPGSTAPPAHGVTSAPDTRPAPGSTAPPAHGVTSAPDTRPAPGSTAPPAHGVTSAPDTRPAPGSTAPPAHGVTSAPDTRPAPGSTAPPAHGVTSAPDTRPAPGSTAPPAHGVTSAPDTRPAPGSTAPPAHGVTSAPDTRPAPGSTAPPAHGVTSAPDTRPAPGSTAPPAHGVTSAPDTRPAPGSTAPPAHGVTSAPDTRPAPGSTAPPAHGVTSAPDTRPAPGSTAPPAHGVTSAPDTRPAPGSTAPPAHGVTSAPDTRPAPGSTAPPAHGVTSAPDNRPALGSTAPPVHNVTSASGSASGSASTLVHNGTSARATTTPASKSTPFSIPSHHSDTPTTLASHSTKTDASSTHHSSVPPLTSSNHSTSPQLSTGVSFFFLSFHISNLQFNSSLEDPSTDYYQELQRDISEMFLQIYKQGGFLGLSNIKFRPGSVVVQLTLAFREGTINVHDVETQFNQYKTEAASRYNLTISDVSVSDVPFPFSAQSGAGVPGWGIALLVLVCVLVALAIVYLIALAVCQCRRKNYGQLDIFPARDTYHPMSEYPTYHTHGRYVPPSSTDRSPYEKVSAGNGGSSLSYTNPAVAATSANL", "test": "Scatchard transformation of Alexa Fluor 594-flagellin binding to A549 cells"}, "[2]": {"biological_target": "T2, MUC1-ED on Ad-GFP-infected airway epithelial cells (A549 cells; SAECs) (human, UniProt P15941 24-1255, endogenous sialylated glycans (alpha2,3- and alpha2,6-linked sialic acid))", "T2 construct": "Endogenous MUC1 of human airway ECs; also called Ad-GFP-infected ECs", "T2 sequence (P15941 24-1255 limits assumed)": "as above", "test": "Alexa Fluor 594-flagellin binding to Ad-GFP-infected A549 cells, 40 min at 4 C, fluorometry, Scatchard transformation; receptor named by the filing as MUC1-ED"}, "[3]": {"biological_target": "T1, MUC1-ED on Ad-NEU1-infected airway …", "test": "Alexa Fluor 594-flagellin binding to Ad-NEU1-infected A549 cells, 40 min at 4 C, fluorometry, Scatchard transformation; receptor named by the filing as MUC1-ED"}}}
{"binder": "B1", "values": [{"measurement": "fold reduction in Kd against Ad-GFP-infected ECs", "setting": "[1]", "value": 2.9, "unit": "fold"}, {"measurement": "Kd", "setting": "[2]", "value": 7.35, "unit": "nM"}, {"measurement": "Kd", "setting": "[3]", "value": 2.54, "unit": "nM"}]}
